{"source": "the DeepSol protein solubility set"}
{"assay": "soluble on expression in E. coli; label from the status in PepcDB or PDB records"}
{"sequence": "MELFELFILDANGVPRGKLLHRDELLAVYRSGRPLPSTILGLTMNGEDVEDSGLVWDVGDIDCRAYPLSGSLVRLPWRQIPTAAVQVSMHPSEGLPASVADPRHLLVRTIDALKSEGYHPVMAAELEFYLLDRERDANGRPQPARDADGGRPRATQVYGLRELEQIEPFLADLYAACKAQGLPARTAISEYAPGQVEITLDHGDALAAMDQAIRYKRLVKGIAHKHGMLACFMAKPFDDLAGTGMHLHVSLADEQGHNLFASDDPAGTPLLRQAVGGMLASLLDSLLLFCPNANSYRRFQANSYAPLAQTWGVDNRTVSLRVPGGPASSRHIEHRICGADANPYLAAAALLAGVHRGIREGIDPGAPVEGNGYAQAGKRLPTDWLTALDTLQGSEWAREAFGEPFLGVYLAVKRAEYRQFMGEVGEQDWRWYL", "soluble on expression in E. coli": "not soluble"}
{"sequence": "MELFTEAWAQAYCRKLNESEAYRKAASTWEGSLALAVRPDPKAGFPKGVAVVLDLWHGACRGAKAVEGEAEADFVIEADLATWQEVLEGRLEPLSALMRGLLELKKGTIAALAPYAQAAQELVKVAREVA", "soluble on expression in E. coli": "soluble"}
{"sequence": "MELKFVVPDMAETFGKLGYAGEGEILTEGYGRNTVVIGRSYHLYSSKQRADDIEVVVAAEAGEKDFDQDQPLKAVNPHLVAKGYAIENRGFTDYVLYVDDLVKA", "soluble on expression in E. coli": "not soluble"}
{"sequence": "MELRHIRYFLAVAEERHFTRAATKLGIGQPPLSQQIKDLERELGAQLFRRVPHGAELTEAGKAFYDVVKGMPATATRAVLAAQRVARGESGVLRVGFTASAAFNSVVPGAIRTFKRAYPDVRLQLEEGNTTQLADELNEGSLDVAFLRPGFTGNERFQLRLLSEEPMVIVLAETHPAAACKQIALSILKDEFFLLFPREIGLSLYDAVIKACGKAGFEPKIGQLVPQISSVINLVSAEMGVSMVPDSMRQVNVKGVVYRPVADQMPVAKLALAYRRGDTSPTLRNFILKVTG", "soluble on expression in E. coli": "not soluble"}
{"sequence": "MELSSPITIYWDLPATAADPSLLLAIAAGIIDCRPLMLNVTSTAPTSPGWLGEVLERFRGGPAAVTLTIPPQAHDDTVRALVAHGAVRELLLDVDHADLLDSGEWQDEPSAGVSYAVTHGNWRELPTLVHYCLDRGITRLVLPMQRLYGGEPPFFLTMNEQRELANALDAEGGAQRLALTIHDPFLWRAFNPGVPFPQGGCQAANTMIAIAPDGGVYPCPTLPVRLGTAGEMPLQELIASEAKKALRRRLLEHPRACGACGELAECRGGCRGRAYVMHQSLEGEDPSCWLEHHHHHH", "soluble on expression in E. coli": "not soluble"}
{"sequence": "MEMKQKLLTDIELDVHELKLLMNTFSKEPTQTLSELLKRSILRMQERLEQLSEEISAVPVEASPSPVAEAESEAPIVEEQAPVIEEVECPVIEEKVVEENEATAPGEDEPVIVQEPQTVVEEAVIEEPVVEDEMEEKEAEDESEDDESLLIEEPKTAVLGESIKMAAGLRHSISLNDSFRFSREIFGGDPELMNRVIEQISVMSSYKTAVAFLASKVSVNEENEAMIDFLELLKKYFNQSA", "soluble on expression in E. coli": "soluble"}
{"sequence": "MEMLSGAEMVVRSLIDQGVKQVFGYPGGAVLDIYDALHTVGGIDHVLVRHEQAAVHMADGLARATGEVGVVLVTSGPGATNAITGIATAYMDSIPLVVLSGQVATSLIGYDAFQECDMVGISRPVVKHSFLVKQTEDIPQVLKKAFWLAASGRPGPVVVDLPKDILNPANKLPYVWPESVSMRSYNPTTTGHKGQIKRALQTLVAAKKPVVYVGGGAITAGCHQQLKETVEALNLPVVCSLMGLGAFPATHRQALGMLGMHGTYEANMTMHNADVIFAVGVRFDDRTTNNLAKYCPNATVLHIDIDPTSISKTVTADIPIVGDARQVLEQMLELLSQESAHQPLDEIRDWWQQIEQWRARQCLKYDTHSEKIKPQAVIETLWRLTKGDAYVTSDVGQHQMFAALYYPFDKPRRWINSGGLGTMGFGLPAALGVKMALPEETVVCVTGDGSIQMNIQELSTALQYELPVLVVNLNNRYLGMVKQWQDMIYSGRHSQSYMQSLPDFVRLAEAYGHVGIQISHPHELESKLSEALEQVRNNRLVFVDVTVDGSEHVYPMQIRGGGMDEMWLSKTERT", "soluble on expression in E. coli": "soluble"}
{"sequence": "MENFSLLYSSEEDALLSYADIRNFQLVWNMVDIEQKRSIPVRRVKFLLRLLKGRLEVNDESDGLLFKHMCHEMERLHNGDDVSFHDVLNMLSYRSVDIRKSLQLEELLQREELEYIIEEEVAKHTIRAWLENCLKNIKAKQNNTLGKMSSIGSTFAFPQSQEVLTKGVVLTEASPEEDSLQGDKGSGKKKAQRGNSITEIVAEAQKKSVKRATDKISERRGTLRQMQMGTYDELEEVEEDEDTDGEIRRSSFEYSGVDMIQMSHEKQLEDVKTWWTLCD", "soluble on expression in E. coli": "not soluble"}
{"sequence": "MENKTNNTKTEIKKKDMSKTFETIKGELFFEDKVIQKIIGIALDEIDGLLTIDGGFFSNIAGKLVNTDNTTSGVDVEVGKKQVAVDLSIVAEYGKDVTTIYDKMKQVISNEVKKMTGLDVIEINVNVVDVKTKEQHENDSVTLQDHLSDAASATGEFASKQFEKSKEALGVASEKVSDGVQNVKEETEPRVKLEHHHHHH", "soluble on expression in E. coli": "soluble"}
{"sequence": "MEPEDTQLKEDIKTTVNYIKQHGVEFENKLLEDERFSFIKKDDPLHEYYTKLMNEPTDTVSGEDNDRKSEREIARPPDFLFSQYDTGISRRDMEVIKLTARYYAKDKSIVEQMISKDGEARLNFMNSSHPLHKTFTDFVAQYKRVYSFTGQEIKKSKRTILDNCFERTQYWEFEKDKDREHDKLVELCKIQFAAIPWDKFTQVAKFSIPEDTEIFEGSLDLEQMRLRRVQTGIKLFDSIKPTNEEEKIVSDQGKQKGGDSKGKKRKIRAVGETRLKKSKK", "soluble on expression in E. coli": "soluble"}
{"sequence": "MEPEFLYDLLQLPKGVEPPAEEELSKGGKKKYLPPTSRKDPKFEELQKVLMEWINATLLPEHIVVRSLEEDMFDGLILHHLFQRLAALKLEAEDIALTATSQKHKLTVVLEAVNRSLQLEEWQAKWSVESIFNKDLLSTLHLLVALAKRFQPDLSLPTNVQVEVITIESTKSGLKSEKLVEQLTEYSTDKDEPPKDVFDELFKLAPEKVNAVKEAIVNFVNQKLDRLGLSVQNLDTQFADGVILLLLIGQLEGFFLHLKEFYLTPNSPAEMLHNVTLALELLKDEGLLSCPVSPEDIVNKDAKSTLRVLYGLFCKHTQKAHRDRTPHGAPN", "soluble on expression in E. coli": "soluble"}
{"sequence": "MEPHLKIDVSSASGSTTTGATASTSEAPQDSQAQQTMPPPSSDWSNQFNSPEAEDMGPFVEQLLPFVRASAYNWFHLQAAKRRHFKEFDKKMCASEENAKLAELQNDRDELKVKWASRLLGKIKKDIQNDDKEAFISAINGSEPNKCIISVADQKGKMRRIDCLRQADKVWRLDLVTIILFKGIPLESTDGERLERSEACVHPLCINPFHMAISVRGLDVFMANYLKDVDTKITLTYPRNDELSDTVMVKQEPGEQTIVAPHAVLGTSSTHTRVWETNSERNAETIIITYDPQKACHTYFGGRATLAQQSLSAGNTYMVNKTAVDNNFFNAKRSVLCLPPPPIQNCFPYPIAGTSDSQQMDMSEDSNDGPSEKRSRDISSHDSPNSSTNDEVRRIVESGTEKLVLGSSIWAAPGQFSRTQQNQGAPGTSRQVRPLPDFQSQDSARSPGAFRSTAKPVCRMTVNTGNHGDVGVVVVDERNREHVIHAQHIVNALSSLRTTPSMRESPVGRKRMHPHTSNSFEFLNCNQEMNKNEGALGSDISPTHTAVSNLISRESSGYMASPTKFTTARGDTTSFSKIFQKIEEKHLQHNQPSTSYCNSQIQPPILSSKPVDSSVKLIAPVAVKPIMSGCNSIIPSPITTPRITPSFRMLEDDSLINVLGQLAHSNDGTTLNDSFIQHLIDTNSRSPLLSSGNAFSALSMGARIEFVGCSNGIGRSSKYCTGRPANSKCNVTSSSRAANQAPVSNTPQDPNAPKLPTDFSHALRNEKK", "soluble on expression in E. coli": "not soluble"}
{"sequence": "MEPKRIREGYLVKKGSVFNTWKPMWVVLLEDGIEFYKKKSDNSPKGMIPLKGSTLTSPCQDFGKRMFVLKITTTKQQDHFFQAAFLEERDAWVRDIKKAIKCIEGGQKFARKSTRRSIRLPETIDLGALYLSMKDPEKGIKELNLEKDKKVFNHCLTGSGVIDWLVSNKLVRNRQEGLMISASLLSEGYLQPAGDLSKNAADGIAENPFLDSPDAFYYFPDSGFFCEENSSDDDVILREEFRGVIIKQGCLLKQGTGENWKVRKFILREDPAYLHYYDPAGGEDPLGAVHLRGCVVTSVESSHDVKKSDEENLFEIITADEVHYYLQAATSKGRTEWIKAIQVASRTGK", "soluble on expression in E. coli": "soluble"}
{"sequence": "MEPNPSDPVLTDRIQAIVTTEKSIDEMMKCAREIIQDLGKEKQIGKNKMEDNANNFKKLITQVENELSAQMQYLSHVCVGSSHQGSTFGVLQNSLLAQSGLSSLHSELFQIVRYLDPTSDEPQTTEEDEEDGSDDLNEDGADGAPSSTVTSSTTDGSGGGDDAASSSAPRSQEESGRQMTDDDDDMEQ", "soluble on expression in E. coli": "not soluble"}
{"sequence": "MEPSTIVKLDVGGKIFKTTIFTLCKHDSMLKTMFCTDVPVTKNEEGSVFIDRDSKHFRLILNFLRDGQIALPDSDREVREVLAEASYFLLDPLIELCGERLEQSLNPYYHLVSTVLEARKIIFATEKPIVVLRLPVYIATSGNQSYYFSETKFRELSEEYHKHVAFILITEPEFNEDCSWSFFLRAKKITARIKGPMDCNLVEECMPKTVERRREKKTWH", "soluble on expression in E. coli": "not soluble"}
{"sequence": "MEQLGSEPETYQIMKTIEKSIIENDNVDLEQYLLFWEHVCNVMCSWGTIFSFVVKDVTAKLEKLTQMRSSDPDSYRTIIGMATKESENGTIRNQKPNRSGTGHLMVLNRALEFVIDLLDGVFTSNDENVSTIARSSYDKHLSQLHSWPIRTAVAAALYTLPRKPEFLCRLRGDMPEDDDNQFHDIFNRDGRDIVRRVNKLVENFELTDYNPSA", "soluble on expression in E. coli": "not soluble"}
{"sequence": "MEQLTLQVEGMSCGHCVNAIESSVKELNGVEQVKVQLAEGTVEVTIDSSVVTLKDIVAVIEDQGYDVQ", "soluble on expression in E. coli": "not soluble"}
{"sequence": "MEQQLKDIISACDLAIQNEDFDTLMNYYSEDAVLVVKPGMIARGKEEIKKAFITIANYFNHHIVPTQGKMILLEAGDTVLVLSQTLLDSDKKDSEYAMERRATYVFKKNAQGEWLCVIDNSYGTDLIGVMAGDPLEHHHHHH", "soluble on expression in E. coli": "soluble"}
{"sequence": "MEQRFPELNVDLSFEQEFQMRVMEEQVSAMSLQEARELLLQASRLLMMKDNVIRSLVKRAARS", "soluble on expression in E. coli": "soluble"}
{"sequence": "MEQVIAQVIKRQQTEERPPDVLSQQTTKYEKRNSASLRKRKNSSKLYLKTDQNWMALREKLASNSIHDKGKYRQKRESNVTCFKSGVESGIQNSSVRSRETQVTFCDGTVPSQGLELANSKSTAEISSRNEIPRLTKVVALDCEFVGVGKLGKEHSLARVSIVNFKGEVLYDKYVLNDKEPVVDYRTSVSGIRPEHLRSSDAVSFEQAQRDVYSIIRNRILVGHAIHHDMHALLLSHPRKLIRDTSKWRGLRSHHLSRKTPSLRKLAQEILGIRIQDGEHDSVEDARATLMIYKRFAKEWEMELQTKKVKLARKKHR", "soluble on expression in E. coli": "soluble"}
{"sequence": "MEQVVIVDAIRTPMGRSKGGAFRNVRAEDLSAHLMRSLLARNPSLTAATLDDIYWGCVQQTLEQGFNIARNAALLAEIPHSVPAVTVNRLCGSSMQALHDAARMIMTGDAQVCLVGGVEHMGHVPMSHGVDFHPGLSRNVAKAAGMMGLTAEMLSRLHGISREMQDQFAARSHARAWAATQSGAFKTEIIPTGGHDADGVLKQFNYDEVIRPETTVEALSTLRPAFDPVSGTVTAGTSSALSDGAAAMLVMSESRARELGLKPRARIRSMAVVGCDPSIMGYGPVPASKLALKKAGLSASDIDVFEMNEAFAAQILPCIKDLGLMEQIDEKINLNGGAIALGHPLGCSGARISTTLINLMERKDAQFGLATMCIGLGQGIATVFERV", "soluble on expression in E. coli": "soluble"}
